Results: patent publication US20250376539A1 (KIRA PHARMACEUTICALS SUZHOU, published 2025)
Where “and” joins values, the source holds several entries; their conditions need not be identical. Equal entries are not always repeated. Each block holds one binder with its values, some of them ahead of it.

Key:
[1] = molecular target: T1, recombinant cynomolgus (cyno) complement C2 (XP_005553508.1), C-terminal 6His-tag, made in house (CHO cell … (cynomolgus monkey (Macaca fascicularis), UniProt P06681 21-752 (human entry))); test: BLI (Gator), antibody on probe; 600 s association at pH 7.4, 600 s dissociation at pH 5.8
T1 construct: also called cyno C2; Cyno C2
T1 chain: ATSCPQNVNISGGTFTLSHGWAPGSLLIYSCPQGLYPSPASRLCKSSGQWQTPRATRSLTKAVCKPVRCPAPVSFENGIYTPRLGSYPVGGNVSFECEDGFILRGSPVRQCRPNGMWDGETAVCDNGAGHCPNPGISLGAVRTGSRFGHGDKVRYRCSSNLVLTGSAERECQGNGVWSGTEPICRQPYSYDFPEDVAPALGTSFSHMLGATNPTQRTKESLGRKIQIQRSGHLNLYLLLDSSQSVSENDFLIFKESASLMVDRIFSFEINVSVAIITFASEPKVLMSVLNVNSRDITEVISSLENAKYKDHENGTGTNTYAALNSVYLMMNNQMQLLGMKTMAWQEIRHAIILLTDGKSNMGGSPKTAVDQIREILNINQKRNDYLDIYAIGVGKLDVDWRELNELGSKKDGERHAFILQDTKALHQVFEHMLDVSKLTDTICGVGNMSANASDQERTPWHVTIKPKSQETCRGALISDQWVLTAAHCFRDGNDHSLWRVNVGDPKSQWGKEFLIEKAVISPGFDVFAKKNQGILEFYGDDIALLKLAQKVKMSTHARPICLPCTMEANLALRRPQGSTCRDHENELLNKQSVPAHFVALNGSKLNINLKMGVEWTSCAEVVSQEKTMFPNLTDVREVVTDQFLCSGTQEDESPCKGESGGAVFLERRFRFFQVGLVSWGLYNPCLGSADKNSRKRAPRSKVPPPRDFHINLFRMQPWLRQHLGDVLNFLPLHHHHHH
Description: (§1) The histidine mutant constructs in Table 4 were tested for their pH-dependent dissociation from human C2. Probe-immobilized anti-C2 antibodies were incubated with C2 at pH 7.4 for 600s, followed by a 600s dissociation period in K Buffer at pH 7.4 or pH 5.8. The data were processed and analyzed by the Gator evaluation software.
(§2) Non-fusion mAb were used for comparison.

[2] = molecular target: T2, recombinant human complement C2 (NP_000054.2), C-terminal 6His-tag, made in house (CHO cell expression) (human, UniProt P06681 21-752); test: as above
T2 construct: a linker before the tag is not described; also called human C2; Human C2
T2 sequence: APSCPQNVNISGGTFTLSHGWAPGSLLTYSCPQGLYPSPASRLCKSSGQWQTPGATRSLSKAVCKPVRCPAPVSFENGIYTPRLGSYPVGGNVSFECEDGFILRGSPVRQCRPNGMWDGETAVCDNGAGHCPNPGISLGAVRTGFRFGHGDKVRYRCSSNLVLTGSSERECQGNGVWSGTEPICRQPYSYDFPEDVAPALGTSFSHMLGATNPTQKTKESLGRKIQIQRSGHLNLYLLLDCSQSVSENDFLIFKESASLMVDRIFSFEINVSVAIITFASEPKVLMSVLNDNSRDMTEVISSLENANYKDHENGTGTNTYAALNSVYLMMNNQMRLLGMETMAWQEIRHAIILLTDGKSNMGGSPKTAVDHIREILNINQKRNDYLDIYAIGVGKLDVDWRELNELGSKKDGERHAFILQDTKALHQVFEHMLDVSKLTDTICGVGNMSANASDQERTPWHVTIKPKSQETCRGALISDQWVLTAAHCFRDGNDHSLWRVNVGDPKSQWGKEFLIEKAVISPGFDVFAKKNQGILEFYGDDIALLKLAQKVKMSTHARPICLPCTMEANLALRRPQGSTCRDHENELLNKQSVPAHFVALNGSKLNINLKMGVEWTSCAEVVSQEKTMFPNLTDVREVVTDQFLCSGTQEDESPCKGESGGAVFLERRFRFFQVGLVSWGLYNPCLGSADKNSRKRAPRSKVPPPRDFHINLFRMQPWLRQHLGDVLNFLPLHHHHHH
Description: as §1, §2

[3] = molecular target: T1, recombinant cynomolgus (cyno) …; test: ELISA
[4] = molecular target: T2, recombinant human complement C2 …; test: ELISA
[5] = molecular target: T1, recombinant cynomolgus (cyno) …; test: BLI (Gator), antibody on probe; 600 s association at pH 7.4, 600 s dissociation at pH 7.4
Description: as §1, §2

[6] = molecular target: T2, recombinant human complement C2 …; test: as above
Description: as §1, §2

[7] = molecular target: T2, recombinant human complement C2 …; test: binding kinetics, neutral pH (BLI presumed)
[8] = molecular target: T1, recombinant cynomolgus (cyno) …; test: BLI (Gator); ratio of dissociation at pH 5.8 to pH 7.4
Description: as §1, §2

[9] = molecular target: T2, recombinant human complement C2 …; test: as above
Description: as §1, §2

[10] = molecular target: T1, recombinant cynomolgus (cyno) …; test: binding kinetics (BLI presumed)

Dissociation (%) pH 5.8 [1]: 7.22%
Dissociation (%) pH 5.8 [2]: 2.45%
EC50 [3]: 0.0794 nM
EC50 [4]: 0.0474 nM
Dissociation (%) pH 7.4 [5]: 4.81%
Dissociation (%) pH 7.4 [6]: 3.15%
Kd [7]: 0.296 nM
koff [7]: 5.85e-05 s⁻¹
kon [7]: 197000 M⁻¹ s⁻¹
Fold dissociation pH 5.8/pH 7.4 [8]: 1.5 fold
Fold dissociation pH 5.8/pH 7.4 [9]: 0.78 fold
Kd [10]: 0.304 nM
koff [10]: 5.89e-05 s⁻¹
kon [10]: 194000 M⁻¹ s⁻¹
B1: anti-C2 antibody 69.44 (antibody, IgG4, V domains shown)
VH: QVQLVQSGAEVKKPGASVKVSCKASGYSFTTYYMYWVRQAPGQGLEWMGIITPSGGSTTYAQKFQDRVTMTRDASTTTVYMELSSLRSEDTAVYYCARGYEGSYGFDHWGQGTLVTVSS
VL: SYELTQPPSVSLSPGQTASITCSGDKLGNKYTCWYQQKPGQSPVLVIYQDNKRPSGIPERFSGSNSGNTATLTISGTQAMDEADYYCQTWDSSTAVFGGGTKLTVL
notes: Recombinant

Dissociation (%) pH 5.8 [1]: 14.5%
Dissociation (%) pH 5.8 [2]: 10.4%
EC50 [3]: 0.0478 nM
EC50 [4]: 0.0504 nM
Dissociation (%) pH 7.4 [5]: 5.37%
Dissociation (%) pH 7.4 [6]: 5.27%
Kd [7]: 0.198 nM and 0.0984 nM
koff [7]: 6.12e-05 s⁻¹ and 3.73e-05 s⁻¹
kon [7]: 308000 M⁻¹ s⁻¹ and 379000 M⁻¹ s⁻¹
Fold dissociation pH 5.8/pH 7.4 [8]: 2.7 fold
Fold dissociation pH 5.8/pH 7.4 [9]: 1.97 fold
Kd [10]: 0.126 nM
koff [10]: 5.82e-05 s⁻¹
kon [10]: 461000 M⁻¹ s⁻¹
B2: anti-C2 antibody 3.2 (antibody, IgG4, V domains shown)
VH: EVQLLESGGGLVQPGGSLRLSCAASGFTFRHYAMSWVRQAPGKGLEWVSLISGSGASTFYADSVKGRFTISRDNSENMLYLQMNSLRAEDTAVYYCAKDSLAVAGSEYFQHWGQGTLVTVSS
VL: SYVLTQAPSVSVAPGQTARITCGGNYFGGKSVHWYQQRPGQAPVLVVYDDSDRPSGIPERFSGSKSGNTATLAISRVEAGDEAAYYCQVYDTSSDHWVFGGGTKLTVL
notes: Recombinant; also called WT; "WT" 3.2
